Test results taken from patent publication US20110294738A1, “PTHR1 RECEPTOR COMPOUNDS” (priority 2008, published 2011).
* marks the point of attachment. Palmitoyl = CCCCCCCCCCCCCCCC(=O)*

biological target: PTHR1 receptor
Sequence (P25961 whole entry): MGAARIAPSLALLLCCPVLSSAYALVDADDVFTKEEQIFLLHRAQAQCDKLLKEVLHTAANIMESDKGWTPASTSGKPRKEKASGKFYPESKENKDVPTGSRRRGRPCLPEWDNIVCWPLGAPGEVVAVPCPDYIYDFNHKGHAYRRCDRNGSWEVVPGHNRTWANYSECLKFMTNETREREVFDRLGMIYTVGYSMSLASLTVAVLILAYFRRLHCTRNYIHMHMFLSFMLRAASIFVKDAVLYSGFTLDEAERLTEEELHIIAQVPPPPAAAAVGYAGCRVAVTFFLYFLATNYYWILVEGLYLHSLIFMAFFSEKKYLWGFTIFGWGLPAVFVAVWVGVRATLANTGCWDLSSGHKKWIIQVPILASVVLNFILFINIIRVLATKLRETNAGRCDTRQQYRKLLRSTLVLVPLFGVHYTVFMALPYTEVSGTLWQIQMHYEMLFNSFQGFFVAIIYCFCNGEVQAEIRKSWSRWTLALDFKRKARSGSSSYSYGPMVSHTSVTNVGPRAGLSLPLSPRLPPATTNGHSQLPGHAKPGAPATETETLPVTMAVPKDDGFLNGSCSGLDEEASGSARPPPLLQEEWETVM

Binder	Fold Shift of EC50 [fold]	Inhibition of Maximal Response
Palmitoyl-LYLHSLIFMAFFSEKKYLWG-NH2 (SMILES CCCCCCCCCCCCCCCC(=O)N[C@@H](CC(C)C)C(=O)N[C@@H](Cc1ccc(O)cc1)C(=O)N[C@@H](CC(C)C)C(=O)N[C@@H](Cc1c[nH]cn1)C(=O)N[C@@H](CO)C(=O)N[C@@H](CC(C)C)C(=O)N[C@H](C(=O)N[C@@H](Cc1ccccc1)C(=O)N[C@@H](CCSC)C(=O)N[C@@H](C)C(=O)N[C@@H](Cc1ccccc1)C(=O)N[C@@H](Cc1ccccc1)C(=O)N[C@@H](CO)C(=O)N[C@@H](CCC(=O)O)C(=O)N[C@@H](CCCCN)C(=O)N[C@@H](CCCCN)C(=O)N[C@@H](Cc1ccc(O)cc1)C(=O)N[C@@H](CC(C)C)C(=O)N[C@@H](Cc1c[nH]c2ccccc12)C(=O)NCC(N)=O)[C@@H](C)CC) [Compound 38]	1.1	21.9%
Palmitoyl-LYLHSLIFMAFFSEKKYL-NH2 (SMILES CCCCCCCCCCCCCCCC(=O)N[C@@H](CC(C)C)C(=O)N[C@@H](Cc1ccc(O)cc1)C(=O)N[C@@H](CC(C)C)C(=O)N[C@@H](Cc1c[nH]cn1)C(=O)N[C@@H](CO)C(=O)N[C@@H](CC(C)C)C(=O)N[C@H](C(=O)N[C@@H](Cc1ccccc1)C(=O)N[C@@H](CCSC)C(=O)N[C@@H](C)C(=O)N[C@@H](Cc1ccccc1)C(=O)N[C@@H](Cc1ccccc1)C(=O)N[C@@H](CO)C(=O)N[C@@H](CCC(=O)O)C(=O)N[C@@H](CCCCN)C(=O)N[C@@H](CCCCN)C(=O)N[C@@H](Cc1ccc(O)cc1)C(=O)N[C@@H](CC(C)C)C(N)=O)[C@@H](C)CC) [Compound 39]	1.3	29.3%
Palmitoyl-GSYFRRLHSTRNYIH-NH2 (SMILES CCCCCCCCCCCCCCCC(=O)NCC(=O)N[C@@H](CO)C(=O)N[C@@H](Cc1ccc(O)cc1)C(=O)N[C@@H](Cc1ccccc1)C(=O)N[C@@H](CCCNC(=N)N)C(=O)N[C@@H](CCCNC(=N)N)C(=O)N[C@@H](CC(C)C)C(=O)N[C@@H](Cc1c[nH]cn1)C(=O)N[C@@H](CO)C(=O)N[C@H](C(=O)N[C@@H](CCCNC(=N)N)C(=O)N[C@@H](CC(N)=O)C(=O)N[C@@H](Cc1ccc(O)cc1)C(=O)N[C@H](C(=O)N[C@@H](Cc1c[nH]cn1)C(N)=O)[C@@H](C)CC)[C@@H](C)O) [Compound 11]	1.1	19.8%
Palmitoyl-SSYFRRLHSTRNYIH-NH2 (SMILES CCCCCCCCCCCCCCCC(=O)N[C@@H](CO)C(=O)N[C@@H](CO)C(=O)N[C@@H](Cc1ccc(O)cc1)C(=O)N[C@@H](Cc1ccccc1)C(=O)N[C@@H](CCCNC(=N)N)C(=O)N[C@@H](CCCNC(=N)N)C(=O)N[C@@H](CC(C)C)C(=O)N[C@@H](Cc1c[nH]cn1)C(=O)N[C@@H](CO)C(=O)N[C@H](C(=O)N[C@@H](CCCNC(=N)N)C(=O)N[C@@H](CC(N)=O)C(=O)N[C@@H](Cc1ccc(O)cc1)C(=O)N[C@H](C(=O)N[C@@H](Cc1c[nH]cn1)C(N)=O)[C@@H](C)CC)[C@@H](C)O) [Compound 12]	0.9	26.6%
Palmitoyl-GGYFRRLHSTRNYIH-NH2 (SMILES CCCCCCCCCCCCCCCC(=O)NCC(=O)NCC(=O)N[C@@H](Cc1ccc(O)cc1)C(=O)N[C@@H](Cc1ccccc1)C(=O)N[C@@H](CCCNC(=N)N)C(=O)N[C@@H](CCCNC(=N)N)C(=O)N[C@@H](CC(C)C)C(=O)N[C@@H](Cc1c[nH]cn1)C(=O)N[C@@H](CO)C(=O)N[C@H](C(=O)N[C@@H](CCCNC(=N)N)C(=O)N[C@@H](CC(N)=O)C(=O)N[C@@H](Cc1ccc(O)cc1)C(=O)N[C@H](C(=O)N[C@@H](Cc1c[nH]cn1)C(N)=O)[C@@H](C)CC)[C@@H](C)O) [Compound 13]	0.7	29.2%
Palmitoyl-LAYFRRLHSTRN-NH2 (SMILES CCCCCCCCCCCCCCCC(=O)N[C@@H](CC(C)C)C(=O)N[C@@H](C)C(=O)N[C@@H](Cc1ccc(O)cc1)C(=O)N[C@@H](Cc1ccccc1)C(=O)N[C@@H](CCCNC(=N)N)C(=O)N[C@@H](CCCNC(=N)N)C(=O)N[C@@H](CC(C)C)C(=O)N[C@@H](Cc1c[nH]cn1)C(=O)N[C@@H](CO)C(=O)N[C@H](C(=O)N[C@@H](CCCNC(=N)N)C(=O)N[C@@H](CC(N)=O)C(N)=O)[C@@H](C)O) [Compound 14]	0.7	15.2%
Palmitoyl-NIVRVLATKLRETNAGR-NH2 (SMILES CCCCCCCCCCCCCCCC(=O)N[C@@H](CC(N)=O)C(=O)N[C@H](C(=O)N[C@H](C(=O)N[C@@H](CCCNC(=N)N)C(=O)N[C@H](C(=O)N[C@@H](CC(C)C)C(=O)N[C@@H](C)C(=O)N[C@H](C(=O)N[C@@H](CCCCN)C(=O)N[C@@H](CC(C)C)C(=O)N[C@@H](CCCNC(=N)N)C(=O)N[C@@H](CCC(=O)O)C(=O)N[C@H](C(=O)N[C@@H](CC(N)=O)C(=O)N[C@@H](C)C(=O)NCC(=O)N[C@@H](CCCNC(=N)N)C(N)=O)[C@@H](C)O)[C@@H](C)O)C(C)C)C(C)C)[C@@H](C)CC) [Compound 54]	0.7	17.5%
Palmitoyl-DTRQQYRKLLKSTL-NH2 (SMILES CCCCCCCCCCCCCCCC(=O)N[C@@H](CC(=O)O)C(=O)N[C@H](C(=O)N[C@@H](CCCNC(=N)N)C(=O)N[C@@H](CCC(N)=O)C(=O)N[C@@H](CCC(N)=O)C(=O)N[C@@H](Cc1ccc(O)cc1)C(=O)N[C@@H](CCCNC(=N)N)C(=O)N[C@@H](CCCCN)C(=O)N[C@@H](CC(C)C)C(=O)N[C@@H](CC(C)C)C(=O)N[C@@H](CCCCN)C(=O)N[C@@H](CO)C(=O)N[C@H](C(=O)N[C@@H](CC(C)C)C(N)=O)[C@@H](C)O)[C@@H](C)O) [Compound 56]	1.9	-30.4%
Palmitoyl-RETNAGRSDTRQQYRKLLFS-NH2 (SMILES CCCCCCCCCCCCCCCC(=O)N[C@@H](CCCNC(=N)N)C(=O)N[C@@H](CCC(=O)O)C(=O)N[C@H](C(=O)N[C@@H](CC(N)=O)C(=O)N[C@@H](C)C(=O)NCC(=O)N[C@@H](CCCNC(=N)N)C(=O)N[C@@H](CO)C(=O)N[C@@H](CC(=O)O)C(=O)N[C@H](C(=O)N[C@@H](CCCNC(=N)N)C(=O)N[C@@H](CCC(N)=O)C(=O)N[C@@H](CCC(N)=O)C(=O)N[C@@H](Cc1ccc(O)cc1)C(=O)N[C@@H](CCCNC(=N)N)C(=O)N[C@@H](CCCCN)C(=O)N[C@@H](CC(C)C)C(=O)N[C@@H](CC(C)C)C(=O)N[C@@H](Cc1ccccc1)C(=O)N[C@@H](CO)C(N)=O)[C@@H](C)O)[C@@H](C)O) [Compound 58]	17.7	0.0367

Continued, values first:

Fold Shift of EC50 [fold]	Inhibition of Maximal Response	Binder
1.1	24.1%	Palmitoyl-LAYFRRLHSTRNYIHMH-NH2 (SMILES CCCCCCCCCCCCCCCC(=O)N[C@@H](CC(C)C)C(=O)N[C@@H](C)C(=O)N[C@@H](Cc1ccc(O)cc1)C(=O)N[C@@H](Cc1ccccc1)C(=O)N[C@@H](CCCNC(=N)N)C(=O)N[C@@H](CCCNC(=N)N)C(=O)N[C@@H](CC(C)C)C(=O)N[C@@H](Cc1c[nH]cn1)C(=O)N[C@@H](CO)C(=O)N[C@H](C(=O)N[C@@H](CCCNC(=N)N)C(=O)N[C@@H](CC(N)=O)C(=O)N[C@@H](Cc1ccc(O)cc1)C(=O)N[C@H](C(=O)N[C@@H](Cc1c[nH]cn1)C(=O)N[C@@H](CCSC)C(=O)N[C@@H](Cc1c[nH]cn1)C(N)=O)[C@@H](C)CC)[C@@H](C)O) [Compound 10]
1.9	-24.9%	Palmitoyl-RRLHSTRNYIH-NH2 (SMILES CCCCCCCCCCCCCCCC(=O)N[C@@H](CCCNC(=N)N)C(=O)N[C@@H](CCCNC(=N)N)C(=O)N[C@@H](CC(C)C)C(=O)N[C@@H](Cc1c[nH]cn1)C(=O)N[C@@H](CO)C(=O)N[C@H](C(=O)N[C@@H](CCCNC(=N)N)C(=O)N[C@@H](CC(N)=O)C(=O)N[C@@H](Cc1ccc(O)cc1)C(=O)N[C@H](C(=O)N[C@@H](Cc1c[nH]cn1)C(N)=O)[C@@H](C)CC)[C@@H](C)O) [Compound 2]
1.5	28.3%	Palmitoyl-LYLHSLIFMAFFSEKK-NH2 (not fully specified) [Compound 40]
0.6	26.1%	Palmitoyl-NIVRVLATKLRE-NH2 (SMILES CCCCCCCCCCCCCCCC(=O)N[C@@H](CC(N)=O)C(=O)N[C@H](C(=O)N[C@H](C(=O)N[C@@H](CCCNC(=N)N)C(=O)N[C@H](C(=O)N[C@@H](CC(C)C)C(=O)N[C@@H](C)C(=O)N[C@H](C(=O)N[C@@H](CCCCN)C(=O)N[C@@H](CC(C)C)C(=O)N[C@@H](CCCNC(=N)N)C(=O)N[C@@H](CCC(=O)O)C(N)=O)[C@@H](C)O)C(C)C)C(C)C)[C@@H](C)CC) [Compound 55]
15.6	-38.8%	Palmitoyl-RQQYRKLLKSTL-NH2 (SMILES CCCCCCCCCCCCCCCC(=O)N[C@@H](CCCNC(=N)N)C(=O)N[C@@H](CCC(N)=O)C(=O)N[C@@H](CCC(N)=O)C(=O)N[C@@H](Cc1ccc(O)cc1)C(=O)N[C@@H](CCCNC(=N)N)C(=O)N[C@@H](CCCCN)C(=O)N[C@@H](CC(C)C)C(=O)N[C@@H](CC(C)C)C(=O)N[C@@H](CCCCN)C(=O)N[C@@H](CO)C(=O)N[C@H](C(=O)N[C@@H](CC(C)C)C(N)=O)[C@@H](C)O) [Compound 57]
